Laboratory results as given in paper PMC7801609, “Isolation of MERS-related coronavirus from lesser bamboo bats that uses DPP4 and infects human-DPP4-transgenic mice” (Nature Communications, 2021).

B1: MERS-RBD fused to a C-terminal His-tag (domain or fragment)
chain: EAKPSGSVVEQAEGVECDFSPLLSGTPPQVYNFKRLVFTNCNYNLTKLLSLFSVNDFTCSQISPAAIASNCYSSLILDYFSYPLSMKSDLSVSSAGPISQFNYKQSFSNPTCLILATVPHNLTTITKPLKYSYINKCSRFLSDDRTEVPQLVNANQYSPCVSIVPSTVWEDGDYYRKQLSPLEGGGWLVASGSTVAMTEQLQMGFGITVQYGTDTNSVCPKLEFANDTKIASQLGNCVEY

How the values were obtained:
Assay in all cases: SPR; BIAcore X100, CM5 chip, 25 °C; […]; HBS-P+ buffer ([…]
[1] = biological target: HKU4-RBD fused to a C-terminal His-tag (Tylonycteris-bat-CoV-HKU4) (UniProt A3EX94)
[2] = biological target: MERS-RBD fused to a C-terminal His-tag (MERS-CoV) (UniProt K9N5Q8)
[3] = biological target: peptidase domain of hDPP4 (residues 39-766) fused to a C-terminal His-tag (human, UniProt P27487 39-766); conditions: both partners purified
peptidase domain of hDPP4 (residues 39-766) fused to a C-terminal His-tag (human, UniProt P27487 39-766), sequence (P27487 39-766): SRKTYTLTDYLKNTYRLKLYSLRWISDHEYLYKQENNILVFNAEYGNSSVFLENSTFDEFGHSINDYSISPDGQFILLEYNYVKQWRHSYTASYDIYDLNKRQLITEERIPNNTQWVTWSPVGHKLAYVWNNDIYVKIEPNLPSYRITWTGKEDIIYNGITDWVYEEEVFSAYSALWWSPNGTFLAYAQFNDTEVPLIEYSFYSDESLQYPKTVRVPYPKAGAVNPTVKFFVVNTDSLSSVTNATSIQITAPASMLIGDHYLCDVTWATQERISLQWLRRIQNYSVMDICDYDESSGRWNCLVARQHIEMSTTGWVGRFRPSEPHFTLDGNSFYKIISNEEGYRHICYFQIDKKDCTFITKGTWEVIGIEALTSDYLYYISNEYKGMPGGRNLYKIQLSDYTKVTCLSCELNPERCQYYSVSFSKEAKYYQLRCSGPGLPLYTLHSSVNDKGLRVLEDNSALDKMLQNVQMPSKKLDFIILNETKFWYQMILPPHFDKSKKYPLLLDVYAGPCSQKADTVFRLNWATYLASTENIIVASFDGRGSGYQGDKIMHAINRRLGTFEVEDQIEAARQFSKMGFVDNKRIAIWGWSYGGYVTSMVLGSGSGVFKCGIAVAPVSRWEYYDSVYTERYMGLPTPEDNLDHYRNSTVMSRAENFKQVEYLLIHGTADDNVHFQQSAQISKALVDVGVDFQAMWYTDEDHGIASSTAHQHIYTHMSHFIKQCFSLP

Molecule	Kd [1] [nM]	Kd [2] [nM]	Kd [3] [nM]
peptidase domain of hDPP4 (residues 39-766) fused to a C-terminal His-tag (from UniProt P27487 39-766) (domain or fragment)	1100	–	–
peptidase domain of dcDPP4 (residues 39-765) fused to a C-terminal His-tag (domain or fragment)	> 47700	> 18700	–
peptidase domain of TpDPP4 (residues 37-764) fused to a C-terminal His-tag (domain or fragment)	2580	–	–
B1	–	–	632
